Results taken from publication PMC11321683, “A Functional InDel in the WRKY10 Promoter Controls the Degree of Flesh Red Pigmentation in Apple”.
Changes are numbered by the printed parent chain.

Biological target: MdWRKY10 (Malus domestica, UniProt D9ZJE9 1-528)
Assay: EMSA; EMSA with LightShift chemiluminescent kit (Thermo) per manufacturer; buffer, pH and temperature not stated
Conditions: protein: recombinant; tags: His (pET-32a(+) vector); label: 3' biotin; blunt

Sequence of MdWRKY10 (D9ZJE9 entry or part of it): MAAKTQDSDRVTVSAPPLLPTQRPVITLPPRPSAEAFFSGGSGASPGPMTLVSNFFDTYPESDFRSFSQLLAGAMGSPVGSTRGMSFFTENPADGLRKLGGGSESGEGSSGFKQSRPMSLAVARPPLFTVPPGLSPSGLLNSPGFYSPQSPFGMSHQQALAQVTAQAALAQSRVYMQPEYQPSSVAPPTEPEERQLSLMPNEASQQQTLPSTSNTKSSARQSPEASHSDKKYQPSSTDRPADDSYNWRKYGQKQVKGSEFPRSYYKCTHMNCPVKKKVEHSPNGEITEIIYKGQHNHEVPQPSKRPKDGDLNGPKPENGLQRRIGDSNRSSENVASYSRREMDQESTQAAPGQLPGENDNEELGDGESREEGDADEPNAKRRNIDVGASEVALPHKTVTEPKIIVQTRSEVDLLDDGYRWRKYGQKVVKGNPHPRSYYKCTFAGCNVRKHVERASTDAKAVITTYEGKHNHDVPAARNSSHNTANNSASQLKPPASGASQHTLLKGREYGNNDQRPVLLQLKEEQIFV

B1: proMdF3'5'H W2 (dsDNA)
DNA 1: TAAATAGTATCTAACGAAAATTGACCGCACGATATACAATGAACGA
DNA 2: TCGTTCATTGTATATCGTGCGGTCAATTTTCGTTAGATACTATTTA
B1: binds.

B2: proMdF3'5'H W2 mutant (dsDNA)
DNA 1: B1 DNA 1 with G23T, A24C
DNA 2: B1 DNA 2 with T23G, C24A
B2: no binding.

B3: proMdUFGT W5 (dsDNA)
DNA 1: TTTTTTGCAACAAATTACCTTTGACTAACAAAACAAGGATATTTCT
DNA 2: AGAAATATCCTTGTTTTGTTAGTCAAAGGTAATTTGTTGCAAAAAA
B3: binds.

B4: proMdUFGT W5 mutant (dsDNA)
DNA 1: B3 DNA 1 with G23T, A24C
DNA 2: B3 DNA 2 with T23G, C24A
B4: no binding.

B5: proMdF3'5'H W3 (dsDNA)
DNA 1: TCACTCATATAGGTAAACTTTGTCAAGGATGTTCATGTAATTATAA
DNA 2: TTATAATTACATGAACATCCTTGACAAAGTTTACCTATATGAGTGA
B5: binds.

B6: proMdF3'5'H W3 mutant (dsDNA)
DNA 1: B5 DNA 1 with T23G, C24A
DNA 2: B5 DNA 2 with G23T, A24C
B6: no binding.

B7: proMdMYB10 W2 (dsDNA)
DNA 1: TGATAAAGGTATCTTATGGTGGTCAAAGATGTGTGTTGTAACTAGT
DNA 2: ACTAGTTACAACACACATCTTTGACCACCATAAGATACCTTTATCA
B7: binds.

B8: proMdMYB10 W2 mutant (dsDNA)
DNA 1: B7 DNA 1 with T23G, C24A
DNA 2: B7 DNA 2 with G23T, A24C
B8: no binding.
